For two molecules, Kd results are on record in article PMC3521694 (PLoS Pathogens, 2012).

The assay has as its target full-length VipD (vacuolar protein sorting inhibitor protein D) (Legionella pneumophila, UniProt Q5ZRP9 1-621). Nature of the assay: ITC; […]; 25°C; 20 mM Tris-HCl pH 7.5, 100 mM NaCl; iTC200. The note with it: both partners purified. For orientation: ITC needs no label: the signal is the heat of the interaction.

A word on the Kd: it is the concentration at which binding is half-saturated. Low readings indicate tighter binding, high ones weaker binding.

B1: Rab5b(1-190):GDP (domain or fragment)
chain: MTSRSTARPNGQPQASKICQFKLVLLGESAVGKSSLVLRFVKGQFHEYQESTIGAAFLTQSVCLDDTTVKFEIWDTAGQERYHSLAPMYYRGAQAAIVVYDITNQETFARAKTWVKELQRQASPSIVIALAGNKADLANKRMVEYEEAQAYADDNSLLFMETSAKTAMNVNDLFLAIAKKLPKSEPQNLG
notes: also called wild-type Rab5b(1-190)
With B1, the Kd stood at 3150 nM.

B2: Rab22a(1-175):GDP (domain or fragment)
chain: MALRELKVCLLGDTGVGKSSIVWRFVEDSFDPNINPTIGASFMTKTVQYQNELHKFLIWDTAGQERFRALAPMYYRGSAAAIIVYDITKEETFSTLKNWVKELRQHGPPNIVVAIAGNKCDLIDVREVMERDAKDYADSIHAIFVETSAKNAININELFIEISRRIPSTDANLPS
notes: also called wild-type Rab22a(1-175)
B2: the equilibrium dissociation constant (Kd) was found to be 123 nM. Compared with the last molecule, the Kd is about 26-fold lower.
